Source: patent US20230192837A1 (published 2023)
Numbering of substitutions follows the chain as printed.

B1: Ab1 (antibody, human IgG1, kappa, V domains shown)
VH: QVQLVQSGAEVKKPGASVKVSCKASGYTFTGYYIHWVRQAPGQGLEWMGWINPYTGGTNYAQKFQGRVTMTRDTSISTAYMELSRLRSDDTAVYYCARDLYGSSNYGGDVWGQGTTVTVSS
VL: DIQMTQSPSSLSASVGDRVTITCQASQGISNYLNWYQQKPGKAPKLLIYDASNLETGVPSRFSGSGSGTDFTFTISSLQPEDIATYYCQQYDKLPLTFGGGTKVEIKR
notes: Human IgG1 with kappa light chain, expressed in CHO cells; also called exemplified anti-human TNFα antibody Ab1
B2: Ab3 (antibody, human IgG1, kappa, V domains shown)
VH: B1 VH with I34M, N59K, G108M
VL: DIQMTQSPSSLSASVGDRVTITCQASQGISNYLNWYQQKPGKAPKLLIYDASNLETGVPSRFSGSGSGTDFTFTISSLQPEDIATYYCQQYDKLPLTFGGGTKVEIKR
B3: Ab2 (antibody, human IgG1, kappa, V domains shown)
VH: B1 VH with G108M
VL: not shown
B4: Ab4 (antibody, human IgG1, kappa, V domains shown)
VH: B1 VH with I34M, N59K, G108M
VL: not shown
B5: Ab5 (antibody, human IgG1, kappa, V domains shown)
VH: B1 VH with I34M, N59K, G108M
VL: DIQMTQSPSSLSASVGDRVTITCQASQGIRNYLNWYQQKPGKAPKLLIYDASNLETGVPSRFSGSGSGTDFTFTISSLQPEDIATYYCQQYDKLPLTFGGGTKVEIKR

What follows are binders tested against T1, rhesus macaque TNFα (rhesus macaque, UniProt P48094 77-233) (assay: antigen-down ELISA, TNFα coated on plate, anti-human kappa-AP detection).
T1 construct: Bought (R&D Systems, Cat #1070-RM); also called rhesus macaque monkey TNFα
Description: Once the color developed (approximately 15-30 min), plates were read at 560 nm OD on a Molecular Device Spectramax plate reader and data was acquired using Softmax Pro 4.7 software. Data analysis was performed in GraphPad Prism.

T1 sequence (P48094 77-233 limits assumed): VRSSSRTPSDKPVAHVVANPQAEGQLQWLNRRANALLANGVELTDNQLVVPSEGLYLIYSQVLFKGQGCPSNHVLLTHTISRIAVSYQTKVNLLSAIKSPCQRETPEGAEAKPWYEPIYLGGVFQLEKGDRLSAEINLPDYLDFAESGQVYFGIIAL

For B1, the EC50 was 0.155 µg/mL.

The binders below were run against T2, human TNFα (human, UniProt P01375 57-233, limits assumed) (assay: cell-based or functional assay).
T2 sequence (P01375 57-233 limits assumed, form in doubt): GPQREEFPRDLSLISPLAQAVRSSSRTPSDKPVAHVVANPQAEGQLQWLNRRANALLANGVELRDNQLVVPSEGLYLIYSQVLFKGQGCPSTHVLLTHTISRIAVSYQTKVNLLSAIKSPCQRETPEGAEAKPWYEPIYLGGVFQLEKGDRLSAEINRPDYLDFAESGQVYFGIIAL

Point of comparison: B4, “% Inhibition of human TNFα-induced plasma CXCL1 in C57/B6 mice, dose 0.3 mg/kg” value 57.2%. Against it:
- B2 — higher, 64.4%
- B1 — higher, 63%
- B3 — lower, 46.5%
- B5 — lower, 49.8%

Point of comparison: B3, “% Inhibition of human TNFα-induced plasma CXCL1 in C57/B6 mice, dose 3 mg/kg” value 82.1%. Against it:
- B2 — higher, 86.6%
- B1 — higher, 83.9%
- B4 — higher, 92.6%
- B5 — higher, 84.3%

What follows are binders tested against membrane human TNFα (non-cleavable TNFα) expressed on CHO cells (human, UniProt P01375 1-233) (assay: cell-based or functional assay).

For B5, the “IC50 of inhibition of membrane TNFα-induced cell killing of L929 cells” value was 0.2 µg/mL.

What follows are binders tested against cynomolgus monkey TNFα (cynomolgus monkey, UniProt P79337 57-233, limits assumed) (assay: cell-based or functional assay).
cynomolgus monkey TNFα, sequence (P79337 57-233 limits assumed, form in doubt): as the sequence (P01375 57-233 limits assumed, form in doubt) above, with R9K, L11P, L57V, R64T, T92N, R158L counted along it

Point of comparison: B2, “IC50 of inhibition of soluble cynomolgus monkey TNFα induced cell killing of L929 cells” value 0.02 µg/mL. Against it:
- B1 — the same, 0.02 µg/mL
- B3 — the same, 0.02 µg/mL
- B4 — the same, 0.02 µg/mL
- B5 — 1.5-fold higher, 0.03 µg/mL

Biological target: T2, human TNFα
Assay: cell-based or functional assay
Remark: another data set of the same source

Point of comparison: B1, “IC50 of inhibition of soluble human TNFα induced cell killing of L929 cells” value 0.16 µg/mL. Against it:
- B2 — within 1.5-fold, 0.19 µg/mL
- B3 — within 1.5-fold, 0.13 µg/mL
- B4 — within 1.5-fold, 0.19 µg/mL
- B5 — within 1.5-fold, 0.22 µg/mL
